# From paper PMC8675521, “Improved methanol tolerance of Rhizomucor miehei lipase based on N‑glycosylation within the α-helix region and its application in biodiesel production” (Biotechnology for Biofuels, 2021)
# Substrate: CCCCCCCCCCCCCCCC(=O)Oc1ccc([N+](=O)[O-])cc1
# Experiment: purified protein
# Type: biochemical, Rhizomucor miehei
# Conditions: 50 mM PBS pH 8.0, 40 °C, 5 min
# [1] = N260 [sic], made on N9A/N59A template, N-glycosylated
# [2] = N93 [sic], made on N9A/N59A template, N-glycosylated
# [3] = propeptide N-glycosylation sites removed
# [4] = N115, made on N9A/N59A template, N-glycosylated
# [5] = printed N183, made on N9A/N59A template, N-glycosylated
# [6] = N218, made on N9A/N59A template, N-glycosylated
protein,measurement,setting,value
"ProRML (Rhizomucor miehei lipase with propeptide) (Rhizomucor miehei) (protein, propeptide plus mature peptide, plasmid pPIC9K (alpha-factor secretion), Pichia pastoris GS115, HisTrap purified; about 40 kDa unglycosylated, mutants about 55 kDa N-glycosylated) AVPIKRQSNSTVDSLPPLIPSRTSAPSSSPSTTDPEAPAMSRNGPLPSDVETKYGMALNATSYPDSVVQAMSIDGGIRAATSQEINELTYYTTLSANSYCRTVIPGATWDCIHCDATEDLKIIKTWSTLIYDTNAMVARGDSEKTIYIVFRGSSSIRNWIADLTFVPVSYPPVSGTKVHKGFLDSYGEVQNELVATVLDQFKQYPSYKVAVTGHSLGGATALLCALDLYQREEGLSSSNLFLYTQGQPRVGDPAFANYVVSTGIPYRRTVNERDIVPHLPPAAFGFLHAGEEYWITDNSPETVQVCTSDLETSDCSNSIVPFTSVLDHLSYFGINTGLCT",Km,,1.16 mM
same,kcat,,1.75 ± 0.0493 s⁻¹
same,kcat/Km,,1510 ± 42.5 M⁻¹ s⁻¹
"ProRML (Rhizomucor miehei lipase with propeptide) (Rhizomucor miehei; N32A/N82A/V283N) (protein, propeptide plus mature peptide, plasmid pPIC9K (alpha-factor secretion), Pichia pastoris GS115, HisTrap purified; about 40 kDa unglycosylated, mutants about 55 kDa N-glycosylated) AVPIKRQSASTVDSLPPLIPSRTSAPSSSPSTTDPEAPAMSRNGPLPSDVETKYGMALAATSYPDSVVQAMSIDGGIRAATSQEINELTYYTTLSANSYCRTVIPGATWDCIHCDATEDLKIIKTWSTLIYDTNAMVARGDSEKTIYIVFRGSSSIRNWIADLTFVPVSYPPVSGTKVHKGFLDSYGEVQNELVATVLDQFKQYPSYKVAVTGHSLGGATALLCALDLYQREEGLSSSNLFLYTQGQPRVGDPAFANYVNSTGIPYRRTVNERDIVPHLPPAAFGFLHAGEEYWITDNSPETVQVCTSDLETSDCSNSIVPFTSVLDHLSYFGINTGLCT",Km,[1],1.25 mM
same,kcat,[1],4.89 ± 0.149 s⁻¹
same,kcat/Km,[1],3930 ± 120 M⁻¹ s⁻¹
"ProRML (Rhizomucor miehei lipase with propeptide) (Rhizomucor miehei; N32A/N82A/T116N) (protein, propeptide plus mature peptide, plasmid pPIC9K (alpha-factor secretion), Pichia pastoris GS115, HisTrap purified; about 40 kDa unglycosylated, mutants about 55 kDa N-glycosylated) AVPIKRQSASTVDSLPPLIPSRTSAPSSSPSTTDPEAPAMSRNGPLPSDVETKYGMALAATSYPDSVVQAMSIDGGIRAATSQEINELTYYTNLSANSYCRTVIPGATWDCIHCDATEDLKIIKTWSTLIYDTNAMVARGDSEKTIYIVFRGSSSIRNWIADLTFVPVSYPPVSGTKVHKGFLDSYGEVQNELVATVLDQFKQYPSYKVAVTGHSLGGATALLCALDLYQREEGLSSSNLFLYTQGQPRVGDPAFANYVVSTGIPYRRTVNERDIVPHLPPAAFGFLHAGEEYWITDNSPETVQVCTSDLETSDCSNSIVPFTSVLDHLSYFGINTGLCT",Km,[2],4.70 mM
same,kcat,[2],63.6 ± 2.62 s⁻¹
same,kcat/Km,[2],13500 ± 558 M⁻¹ s⁻¹
"ProRML (Rhizomucor miehei lipase with propeptide) (Rhizomucor miehei; N32A/N82A) (protein, propeptide plus mature peptide, plasmid pPIC9K (alpha-factor secretion), Pichia pastoris GS115, HisTrap purified; about 40 kDa unglycosylated, mutants about 55 kDa N-glycosylated) AVPIKRQSASTVDSLPPLIPSRTSAPSSSPSTTDPEAPAMSRNGPLPSDVETKYGMALAATSYPDSVVQAMSIDGGIRAATSQEINELTYYTTLSANSYCRTVIPGATWDCIHCDATEDLKIIKTWSTLIYDTNAMVARGDSEKTIYIVFRGSSSIRNWIADLTFVPVSYPPVSGTKVHKGFLDSYGEVQNELVATVLDQFKQYPSYKVAVTGHSLGGATALLCALDLYQREEGLSSSNLFLYTQGQPRVGDPAFANYVVSTGIPYRRTVNERDIVPHLPPAAFGFLHAGEEYWITDNSPETVQVCTSDLETSDCSNSIVPFTSVLDHLSYFGINTGLCT",Km,[3],0.35 mM
same,kcat,[3],0.844 ± 0.0385 s⁻¹
same,kcat/Km,[3],2420 ± 111 M⁻¹ s⁻¹
"ProRML (Rhizomucor miehei lipase with propeptide) (Rhizomucor miehei; D138N/N32A/N82A) (protein, propeptide plus mature peptide, plasmid pPIC9K (alpha-factor secretion), Pichia pastoris GS115, HisTrap purified; about 40 kDa unglycosylated, mutants about 55 kDa N-glycosylated) AVPIKRQSASTVDSLPPLIPSRTSAPSSSPSTTDPEAPAMSRNGPLPSDVETKYGMALAATSYPDSVVQAMSIDGGIRAATSQEINELTYYTTLSANSYCRTVIPGATWDCIHCNATEDLKIIKTWSTLIYDTNAMVARGDSEKTIYIVFRGSSSIRNWIADLTFVPVSYPPVSGTKVHKGFLDSYGEVQNELVATVLDQFKQYPSYKVAVTGHSLGGATALLCALDLYQREEGLSSSNLFLYTQGQPRVGDPAFANYVVSTGIPYRRTVNERDIVPHLPPAAFGFLHAGEEYWITDNSPETVQVCTSDLETSDCSNSIVPFTSVLDHLSYFGINTGLCT",Km,[4],0.64 mM
same,kcat,[4],7.26 ± 0.277 s⁻¹
same,kcat/Km,[4],11300 ± 432 M⁻¹ s⁻¹
"ProRML (Rhizomucor miehei lipase with propeptide) (Rhizomucor miehei; L206N/N32A/N82A) (protein, propeptide plus mature peptide, plasmid pPIC9K (alpha-factor secretion), Pichia pastoris GS115, HisTrap purified; about 40 kDa unglycosylated, mutants about 55 kDa N-glycosylated) AVPIKRQSASTVDSLPPLIPSRTSAPSSSPSTTDPEAPAMSRNGPLPSDVETKYGMALAATSYPDSVVQAMSIDGGIRAATSQEINELTYYTTLSANSYCRTVIPGATWDCIHCDATEDLKIIKTWSTLIYDTNAMVARGDSEKTIYIVFRGSSSIRNWIADLTFVPVSYPPVSGTKVHKGFNDSYGEVQNELVATVLDQFKQYPSYKVAVTGHSLGGATALLCALDLYQREEGLSSSNLFLYTQGQPRVGDPAFANYVVSTGIPYRRTVNERDIVPHLPPAAFGFLHAGEEYWITDNSPETVQVCTSDLETSDCSNSIVPFTSVLDHLSYFGINTGLCT",Km,[5],0.36 mM
same,kcat,[5],1.186 ± 0.00633 s⁻¹
same,kcat/Km,[5],3258 ± 17.5 M⁻¹ s⁻¹
"ProRML (Rhizomucor miehei lipase with propeptide) (Rhizomucor miehei; G241N/N32A/N82A) (protein, propeptide plus mature peptide, plasmid pPIC9K (alpha-factor secretion), Pichia pastoris GS115, HisTrap purified; about 40 kDa unglycosylated, mutants about 55 kDa N-glycosylated) AVPIKRQSASTVDSLPPLIPSRTSAPSSSPSTTDPEAPAMSRNGPLPSDVETKYGMALAATSYPDSVVQAMSIDGGIRAATSQEINELTYYTTLSANSYCRTVIPGATWDCIHCDATEDLKIIKTWSTLIYDTNAMVARGDSEKTIYIVFRGSSSIRNWIADLTFVPVSYPPVSGTKVHKGFLDSYGEVQNELVATVLDQFKQYPSYKVAVTGHSLGNATALLCALDLYQREEGLSSSNLFLYTQGQPRVGDPAFANYVVSTGIPYRRTVNERDIVPHLPPAAFGFLHAGEEYWITDNSPETVQVCTSDLETSDCSNSIVPFTSVLDHLSYFGINTGLCT",Km,[6],13.2 mM
same,kcat/Km,[6],64800 ± 1970 M⁻¹ s⁻¹
